Results from patent publication US20160010082A1.

Target: YPet-Mona
Assay: flow cytometry of E. coli displaying the construct, 50 nM YPet-Mona; 30 minutes of expression; reference CPX display

YPet-Mona, sequence (O89100 263-322): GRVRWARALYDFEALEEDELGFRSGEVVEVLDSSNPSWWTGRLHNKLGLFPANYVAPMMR

fold improved display level compared to CPX: 9 fold
B1: eCPX displaying the P2 peptide at the C-terminus (protein)
chain: GQSGQGGQSGQSGDYNKNQYYGITAGPAYRINDWASIYGVVGVGYGKFQTTEYPTYKHDTSDYGFSYGAGLQFNPMENVALDFSYEQSRIRSVDVGTWILSVGYRFGSKSRRATSTVTGGYAQSDAQGQMNKMGGFNLKYRYEEDNSPLGVIGSFTYTEKSRTASGGQSGQPAPSIDRSTKPPL
